Data on eleven molecules can be found in PMC7498314, “Microcephaly family protein MCPH1 stabilizes RAD51 filaments” (Nucleic Acids Research, 2020).

To fix the notation:
T1: (His)6-MBP-tagged mouse MCPH1 (Microcephalin 1) (mouse, UniProt Q7TT79 1-822)
T1 construct: mouse MCPH1 (microcephalin 1), wild type, cDNA NM_173189.2; calculated molecular mass of the untagged protein 90,372 Da; A PreScission protease site lies between the (His)6-MBP tag and MCPH1; the uncleaved, tagged protein was used in the pull-downs; Tag-free MCPH1 (tag cleaved) was used in the Benzonase protection and TPM assays; also called (His)6-MBP-MCPH1; wild-type MCPH1; source: Expi293F …
T1 sequence (looked up): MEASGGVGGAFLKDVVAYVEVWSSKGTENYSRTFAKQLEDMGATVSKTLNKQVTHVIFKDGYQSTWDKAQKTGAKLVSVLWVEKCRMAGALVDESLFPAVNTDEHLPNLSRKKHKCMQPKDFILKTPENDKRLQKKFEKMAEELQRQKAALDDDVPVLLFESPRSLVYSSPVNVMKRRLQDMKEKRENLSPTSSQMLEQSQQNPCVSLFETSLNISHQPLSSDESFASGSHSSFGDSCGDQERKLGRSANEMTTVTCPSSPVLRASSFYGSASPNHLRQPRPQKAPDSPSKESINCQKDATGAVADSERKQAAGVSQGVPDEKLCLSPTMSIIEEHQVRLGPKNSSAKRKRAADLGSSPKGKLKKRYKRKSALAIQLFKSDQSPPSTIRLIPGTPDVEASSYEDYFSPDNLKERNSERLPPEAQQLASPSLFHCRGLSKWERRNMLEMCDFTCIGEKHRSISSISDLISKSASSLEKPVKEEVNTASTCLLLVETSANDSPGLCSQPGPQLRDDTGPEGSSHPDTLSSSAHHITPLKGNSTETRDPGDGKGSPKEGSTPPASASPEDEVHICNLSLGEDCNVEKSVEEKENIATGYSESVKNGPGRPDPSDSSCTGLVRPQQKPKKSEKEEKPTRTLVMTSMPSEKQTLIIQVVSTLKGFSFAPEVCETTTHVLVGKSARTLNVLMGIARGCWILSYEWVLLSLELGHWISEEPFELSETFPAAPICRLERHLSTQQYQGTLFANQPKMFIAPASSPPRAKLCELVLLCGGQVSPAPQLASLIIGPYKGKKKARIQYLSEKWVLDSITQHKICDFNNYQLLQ

T2: MCPH1 (tag-free) (Mus musculus, UniProt Q7TT79 1-822)
T2 sequence: T1 sequence (looked up)

B1: (His)6-SUMO-tagged mouse MCPH1 fragment, amino acids 287-383 (central region containing the nuclear localization signal) (domain or fragment, UniProt Q7TT79 287-383, looked up)
chain: DSPSKESINCQKDATGAVADSERKQAAGVSQGVPDEKLCLSPTMSIIEEHQVRLGPKNSSAKRKRAADLGSSPKGKLKKRYKRKSALAIQLFKSDQS
notes: mouse MCPH1, residues 287-383, containing the nuclear localization signal; also called truncated MCPH1 variant; source: E. coli BL21*(DE3)(pLys), purified (Ni-NTA); not shown: His6, N-terminal, kept; SUMO, N-terminal, kept
B2: (His)6-SUMO-tagged mouse MCPH1 fragment, amino acids 628-822 (C-terminus, containing BRCT2 and BRCT3) (domain or fragment, UniProt Q7TT79 628-822, looked up)
chain: EKEEKPTRTLVMTSMPSEKQTLIIQVVSTLKGFSFAPEVCETTTHVLVGKSARTLNVLMGIARGCWILSYEWVLLSLELGHWISEEPFELSETFPAAPICRLERHLSTQQYQGTLFANQPKMFIAPASSPPRAKLCELVLLCGGQVSPAPQLASLIIGPYKGKKKARIQYLSEKWVLDSITQHKICDFNNYQLLQ
notes: mouse MCPH1, residues 628-822, containing BRCT2 and BRCT3; also called truncated MCPH1 variant; source: E. coli BL21*(DE3)(pLys), purified (Ni-NTA); not shown: His6, N-terminal, kept; SUMO, N-terminal, kept
B3: Strep-tagged mouse RAD51 (natural protein, UniProt Q08297 1-339, looked up)
chain: MAMQMQLEASADTSVEEESFGPQPISRLEQCGINANDVKKLEEAGYHTVEAVAYAPKKELINIKGISEAKADKILTEAAKLVPMGFTTATEFHQRRSEIIQITTGSKELDKLLQGGIETGSITEMFGEFRTGKTQICHTLAVTCQLPIDRGGGEGKAMYIDTEGTFRPERLLAVAERYGLSGSDVLDNVAYARGFNTDHQTQLLYQASAMMVESRYALLIVDSATALYRTDYSGRGELSARQMHLARFLRMLLRLADEFGVAVVITNQVVAQVDGAAMFAADPKKPIGGNIIAHASTTRLYLRKGRGETRICKIYDSPCLPEAEAMFAINADGVGDAKD
notes: mouse RAD51 recombinase; (His)6-tagged mouse RAD51 was used in the Benzonase protection and TPM assays; also called RAD51 recombinase
B4: Oligo 3 ssDNA (ssDNA)
DNA: GCCGTCGCATGACGCTGCCGAATTCTACCACGCTACTAGGGTGCCTTGCTAGGACATCTTTGCCCACCTGCAGGTTCACCCCGTCCCTGGC
B5: D-loop (Oligo 2+3+4) (mixed)
DNA 1: B4 DNA
DNA 2: GCCAGGGACGGGGTGAACCTGCAGGTGGGCGGCTGCTCATCGTAGGTTAGTATCGACCTATTGGTAGAATTCGGCAGCGTCATGCGACGGC
DNA 3: AAGATGTCCTAGCAAGGCACCCTAGTAGC
B6: dsDNA (Oligo 5+9) (dsDNA)
DNA 1: ACGCTGCCGAATTCTACCAGTGCCTTGCTAGGACATCTTTGCCCACCTGCAGGTTCACCC
DNA 2: GGGTGAACCTGCAGGTGGGCAAAGATGTCCTAGCAAGGCACTGGTAGAATTCGGCAGCGT
B7: 3'-overhang DNA (Oligo 5+10) (mixed)
DNA 1: B6 DNA 1
DNA 2: AGGCACTGGTAGAATTCGGCAGCGT
B8: Holliday junction (Oligo 5+6+7+8) (structured_DNA)
DNA 1: B6 DNA 1
DNA 2: GGGTGAACCTGCAGGTGGGCAAAGATGTCCATCTGTTGTAATCGTCAAGCTTTATGCCGT
DNA 3: ACGGCATAAAGCTTGACGATTACAACAGATCATGGAGCTGTCTAGAGGATCCGACTATCG
DNA 4: CGATAGTCGGATCCTCTAGACAGCTCCATGTAGCAAGGCACTGGTAGAATTCGGCAGCGT
B9: (His)6-SUMO-tagged mouse MCPH1 fragment, amino acids 384-476 (central region containing a Condensin-II binding region) (domain or fragment, UniProt Q7TT79 384-476, looked up)
chain: PPSTIRLIPGTPDVEASSYEDYFSPDNLKERNSERLPPEAQQLASPSLFHCRGLSKWERRNMLEMCDFTCIGEKHRSISSISDLISKSASSLE
notes: also called truncated MCPH1 variant; source: E. coli BL21*(DE3)(pLys), purified (Ni-NTA); not shown: His6, N-terminal, kept; SUMO, N-terminal, kept
B10: Strep-tagged mouse DMC1 (natural protein, UniProt Q61880 1-340, looked up)
chain: MKEDQVVQEESGFQDDEESLFQDIDLLQKHGINMADIKKLKSVGICTIKGIQMTTRRALCNVKGLSEAKVEKIKEAANKLIEPGFLTAFQYSERRKMVFHITTGSQEFDKLLGGGIESMAITEAFGEFRTGKTQLSHTLCVTAQLPGTGGYSGGKIIFIDTENTFRPDRLRDIADRFNVDHEAVLDNVLYARAYTSEHQMELLDYVAAKFHEEAGIFKLLIIDSIMALFRVDFSGRGELAERQQKLAQMLSRLQKISEEYNVAVFVTNQMTADPGATMTFQADPKKPIGGHILAHASTTRISLRKGRGELRIAKIYDSPEMPENEATFAITAGGIGDAKE
notes: mouse DMC1, the meiotic RAD51 homolog; (His)6-tagged mouse DMC1 was used in the Benzonase protection assay; also called meiotic recombinase DMC1
B11: (His)6-SUMO-tagged mouse MCPH1 fragment, amino acids 1-190 (N-terminus, containing BRCT1) (domain or fragment, UniProt Q7TT79 1-190, looked up)
chain: MEASGGVGGAFLKDVVAYVEVWSSKGTENYSRTFAKQLEDMGATVSKTLNKQVTHVIFKDGYQSTWDKAQKTGAKLVSVLWVEKCRMAGALVDESLFPAVNTDEHLPNLSRKKHKCMQPKDFILKTPENDKRLQKKFEKMAEELQRQKAALDDDVPVLLFESPRSLVYSSPVNVMKRRLQDMKEKRENLS
notes: mouse MCPH1, residues 1-190, containing BRCT1; also called truncated MCPH1 variant; source: E. coli BL21*(DE3)(pLys), purified (Ni-NTA); not shown: His6, N-terminal, kept; SUMO, N-terminal, kept

The data set “Strep-tagged mouse RAD51” concerns the target B3. The experiment in a line: pull-down; (His)6-SUMO-tagged MCPH1 fragments (2 μg) with Strep-tagged RAD51 or DMC1 (2 μg), same procedure (buffer D, Benzonase, Talon resin); SDS-PAGE and western blot with RAD51 or DMC1 antibody. To be noted: both partners purified. (Immunoblotting shows a protein as a band on a membrane.)
The data set “Strep-tagged mouse DMC1” concerns the target B10. Described as above. The settings on record: both partners purified.
In data set [1] the target is T1, (His)6-MBP-tagged mouse MCPH1 …. As to the kind of experiment: pull-down; (His)6-MBP-MCPH1 (4 μg) incubated with recombinase (1 μg) in 30 μl buffer D (25 mM Tris-HCl pH 7.5, 10% glycerol, 0.01% Igepal, 100 mM KCl, 10 mM imidazole) 30 min at 37°C with Benzonase and 2 mM MgCl2; captured on Talon resin via the (His)6 tag; SDS-PAGE with Coomassie Blue staining. To be noted: both partners purified.

For the next data set, the target named is T2, MCPH1 (tag-free). As to the kind of experiment: EMSA; 50 mM KCl; EMSA: 35 mM Tris-HCl pH 7.5, 1 mM DTT, 50 mM KCl, 0.1 ug/ul BSA, 37 C, 5 min; DNA 750 nM (oligos) or 6 uM (PhiX174) nucleotides/bp. TPM: 100 mM KCl (150 mM high salt). To be noted: protein: recombinant, tags: none (His6-MBP removed with PreScission).

Consider B1, for which the binding result with Strep-tagged mouse RAD51 and with Strep-tagged mouse DMC1 was “binds” each time.

Take B2: the binding result with Strep-tagged mouse RAD51 and with Strep-tagged mouse DMC1 was “binds” throughout.

Consider B3, for which the binding result in data set [1] was “binds”.

Consider B4, for which the binding result with MCPH1 (tag-free) (label: 5'-32P, single strand) is recorded as “binds”.

As for B5, the binding result in the data set with MCPH1 (tag-free) (label: 5'-32P on Oligo 3, D-loop, Oligo 2 and 3 pair at both ends, Oligo 4 pairs in the bubble of Oligo 3) is recorded as “binds”.

In the case of B6, in the data set with MCPH1 (tag-free) (label: 5'-32P on Oligo 5, blunt), the binding result is recorded as “binds”.

As for B7, in the data set with MCPH1 (tag-free) (label: 5'-32P on Oligo 5, 3' overhang 35 nt), the binding result is “binds”.

Consider B8, for which the binding result in the data set with MCPH1 (tag-free) (label: 5'-32P on Oligo 5, four-way junction 1:2 2:3 3:4 4:1) is listed as “binds”.

For the molecule B9, the binding result with Strep-tagged mouse RAD51 and in the data set with Strep-tagged mouse DMC1 was “binds” in each case.

For the molecule B10, the binding result in data set [1] was “binds”.

In the case of B11, the binding result in the data set with Strep-tagged mouse RAD51 and with Strep-tagged mouse DMC1 was “binds” throughout.
